No end group written: not given here. Me3 = trimethyl (trimethyl-lysine)
T1: GST-fused Tandem-Tudor domain (TTD) of human UHRF1, residues 126-280, wild type (human, UniProt Q96T88 126-280)
T1 construct: Tandem Tudor domain (TTD) of human UHRF1, UniProt Q96T88, residues 126-280; borders as in Rothbart et al., 2012; also called hUHRF1-TTD; UHRF1-TTD; source: E. coli, purified (Glutathione Agarose 4B); not shown: GST, N-terminal, kept
T1 sequence (looked up): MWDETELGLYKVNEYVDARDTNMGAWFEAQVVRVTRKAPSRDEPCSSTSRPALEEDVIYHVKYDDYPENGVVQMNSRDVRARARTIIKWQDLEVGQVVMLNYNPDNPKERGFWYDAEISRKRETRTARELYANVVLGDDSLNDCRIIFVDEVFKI

T2: GST-hUHRF1-TTD (126-280) R207Q (human, UniProt Q96T88 126-280, R207Q)
T2 construct: Tandem Tudor domain (TTD) of human UHRF1, UniProt Q96T88, residues 126-280; source: E. coli, purified (Glutathione Agarose 4B); not shown: GST, N-terminal, kept
T2 sequence (looked up): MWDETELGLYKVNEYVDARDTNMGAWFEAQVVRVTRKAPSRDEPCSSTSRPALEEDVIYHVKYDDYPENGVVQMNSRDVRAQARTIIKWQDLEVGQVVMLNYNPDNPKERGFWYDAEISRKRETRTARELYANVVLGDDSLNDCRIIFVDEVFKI

T3: GST-hUHRF1-TTD (126-280) R207H (human, UniProt Q96T88 126-280, R207H)
T3 construct: Tandem Tudor domain (TTD) of human UHRF1, UniProt Q96T88, residues 126-280; source: E. coli, purified (Glutathione Agarose 4B); not shown: GST, N-terminal, kept
T3 sequence (looked up): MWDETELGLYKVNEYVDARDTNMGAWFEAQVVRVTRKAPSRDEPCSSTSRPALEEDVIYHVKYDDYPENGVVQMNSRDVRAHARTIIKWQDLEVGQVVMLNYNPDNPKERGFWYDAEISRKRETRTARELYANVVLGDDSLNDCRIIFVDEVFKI

T4: GST-hUHRF1-TTD (126-280) R207E (human, UniProt Q96T88 126-280, R207E)
T4 construct: Tandem Tudor domain (TTD) of human UHRF1, UniProt Q96T88, residues 126-280; also called TTD R207E; source: E. coli, purified (Glutathione Agarose 4B); not shown: GST, N-terminal, kept
T4 sequence (looked up): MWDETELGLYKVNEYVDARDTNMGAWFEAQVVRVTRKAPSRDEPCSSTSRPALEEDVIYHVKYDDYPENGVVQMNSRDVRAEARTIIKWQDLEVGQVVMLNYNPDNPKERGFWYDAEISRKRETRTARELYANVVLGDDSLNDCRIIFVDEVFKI

T5: GST-hUHRF1-TTD (126-280) M224A (human, UniProt Q96T88 126-280, M224A)
T5 construct: Tandem Tudor domain (TTD) of human UHRF1, UniProt Q96T88, residues 126-280; source: E. coli, purified (Glutathione Agarose 4B); not shown: GST, N-terminal, kept
T5 sequence (looked up): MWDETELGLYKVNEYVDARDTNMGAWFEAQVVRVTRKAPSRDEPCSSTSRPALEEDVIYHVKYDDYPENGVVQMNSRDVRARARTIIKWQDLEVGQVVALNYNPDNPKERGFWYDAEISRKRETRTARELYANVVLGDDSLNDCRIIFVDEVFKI

T6: GST-hUHRF1-TTD (126-280) F278A (human, UniProt Q96T88 126-280, F278A)
T6 construct: Tandem Tudor domain (TTD) of human UHRF1, UniProt Q96T88, residues 126-280; source: E. coli, purified (Glutathione Agarose 4B); not shown: GST, N-terminal, kept
T6 sequence (looked up): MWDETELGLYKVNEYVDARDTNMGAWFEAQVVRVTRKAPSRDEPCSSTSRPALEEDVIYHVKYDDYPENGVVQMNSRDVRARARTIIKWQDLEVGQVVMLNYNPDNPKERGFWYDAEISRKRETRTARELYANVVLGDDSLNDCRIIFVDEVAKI

T7: GST-hUHRF1-TTD (126-280) D142A (human, UniProt Q96T88 126-280, D142A)
T7 construct: Tandem Tudor domain (TTD) of human UHRF1, UniProt Q96T88, residues 126-280; also called TTD D142A mutant; source: E. coli, purified (Glutathione Agarose 4B); not shown: GST, N-terminal, kept
T7 sequence (looked up): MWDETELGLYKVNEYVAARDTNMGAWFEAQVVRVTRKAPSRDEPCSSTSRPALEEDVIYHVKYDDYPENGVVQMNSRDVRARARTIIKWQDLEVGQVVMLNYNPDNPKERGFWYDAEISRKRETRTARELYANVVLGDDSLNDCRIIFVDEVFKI

T8: GST-hUHRF1-TTD (126-280) D142E (human, UniProt Q96T88 126-280, D142E)
T8 construct: Tandem Tudor domain (TTD) of human UHRF1, UniProt Q96T88, residues 126-280; source: E. coli, purified (Glutathione Agarose 4B); not shown: GST, N-terminal, kept
T8 sequence (looked up): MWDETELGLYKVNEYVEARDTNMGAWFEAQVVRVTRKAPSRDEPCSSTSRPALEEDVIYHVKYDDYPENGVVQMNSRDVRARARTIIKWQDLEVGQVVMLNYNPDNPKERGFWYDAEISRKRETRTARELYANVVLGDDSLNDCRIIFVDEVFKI

T9: GST-hUHRF1-TTD (126-280) D142N (human, UniProt Q96T88 126-280, D142N)
T9 construct: Tandem Tudor domain (TTD) of human UHRF1, UniProt Q96T88, residues 126-280; source: E. coli, purified (Glutathione Agarose 4B); not shown: GST, N-terminal, kept
T9 sequence (looked up): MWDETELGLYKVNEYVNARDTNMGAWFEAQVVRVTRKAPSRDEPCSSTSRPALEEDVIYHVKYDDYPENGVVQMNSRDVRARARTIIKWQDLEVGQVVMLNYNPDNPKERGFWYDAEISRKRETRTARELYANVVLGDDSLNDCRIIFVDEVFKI

T10: GST-hUHRF1-TTD (126-280) E153A (human, UniProt Q96T88 126-280, E153A)
T10 construct: Tandem Tudor domain (TTD) of human UHRF1, UniProt Q96T88, residues 126-280; also called E153A TTD mutant; source: E. coli, purified (Glutathione Agarose 4B); not shown: GST, N-terminal, kept
T10 sequence (looked up): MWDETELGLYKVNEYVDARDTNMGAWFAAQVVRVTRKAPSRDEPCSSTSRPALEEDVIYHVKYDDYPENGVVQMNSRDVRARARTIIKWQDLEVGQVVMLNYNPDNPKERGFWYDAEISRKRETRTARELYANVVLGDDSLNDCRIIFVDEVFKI

T11: GST-hUHRF1-TTD (126-280) E153D (human, UniProt Q96T88 126-280, E153D)
T11 construct: Tandem Tudor domain (TTD) of human UHRF1, UniProt Q96T88, residues 126-280; also called TTD E153D; source: E. coli, purified (Glutathione Agarose 4B); not shown: GST, N-terminal, kept
T11 sequence (looked up): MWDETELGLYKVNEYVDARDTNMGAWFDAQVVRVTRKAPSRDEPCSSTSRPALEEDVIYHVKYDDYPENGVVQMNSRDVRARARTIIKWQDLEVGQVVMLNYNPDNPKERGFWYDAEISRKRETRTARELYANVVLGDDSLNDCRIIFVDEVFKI

T12: GST-hUHRF1-TTD (126-280) E153Q (human, UniProt Q96T88 126-280, E153Q)
T12 construct: Tandem Tudor domain (TTD) of human UHRF1, UniProt Q96T88, residues 126-280; source: E. coli, purified (Glutathione Agarose 4B); not shown: GST, N-terminal, kept
T12 sequence (looked up): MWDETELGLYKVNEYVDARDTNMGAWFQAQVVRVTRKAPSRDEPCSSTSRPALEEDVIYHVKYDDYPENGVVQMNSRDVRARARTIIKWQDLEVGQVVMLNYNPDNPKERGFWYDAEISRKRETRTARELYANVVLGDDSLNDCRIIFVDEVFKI

T13: GST-hUHRF1-TTD (126-280) R207A (human, UniProt Q96T88 126-280, R207A)
T13 construct: Tandem Tudor domain (TTD) of human UHRF1, UniProt Q96T88, residues 126-280; source: E. coli, purified (Glutathione Agarose 4B); not shown: GST, N-terminal, kept
T13 sequence (looked up): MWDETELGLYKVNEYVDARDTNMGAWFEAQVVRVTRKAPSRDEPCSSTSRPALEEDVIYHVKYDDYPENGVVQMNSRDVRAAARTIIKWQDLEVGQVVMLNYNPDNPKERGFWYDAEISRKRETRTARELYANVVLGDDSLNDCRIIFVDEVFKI

T14: GST-hUHRF1-TTD (126-280) R207L (human, UniProt Q96T88 126-280, R207L)
T14 construct: Tandem Tudor domain (TTD) of human UHRF1, UniProt Q96T88, residues 126-280; source: E. coli, purified (Glutathione Agarose 4B); not shown: GST, N-terminal, kept
T14 sequence (looked up): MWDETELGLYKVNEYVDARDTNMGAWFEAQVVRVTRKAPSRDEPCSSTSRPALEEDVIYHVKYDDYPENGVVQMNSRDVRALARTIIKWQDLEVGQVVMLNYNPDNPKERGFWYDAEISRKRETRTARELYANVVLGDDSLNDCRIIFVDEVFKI

B1: FITC-labeled H3(1-19) peptide with K4me1 and K9me3 (peptide, UniProt P68431 2-20, looked up)
peptide: ARTK(Me)QTARK(Me3)STGGKAPRKQ
modifications: also: FITC-labeled (position not given here)
notes: histone H3 N-terminal tail, residues 1-19; also called H3K4me1-K9me3; H3 K4me1-K9me3
B2: FITC-labeled H3(1-19) peptide with K9me3 (peptide, UniProt P68431 2-20, looked up)
peptide: ARTKQTARKSTGGKAPRKQ
modifications: K9me3 (trimethyl-lysine at 9); FITC-labeled
notes: histone H3 N-terminal tail, residues 1-19; also called H3K9me3; H3 K9me3

Columns and labels:
Experiment in all cases: fluorescence polarisation; fluorescence anisotropy titration; 100 nM FITC-labeled peptide in the cuvette, protein added stepwise; 23°C; 100 mM KCl, 20 mM HEPES pH 7.5, 10% v/v glycerol
Settings in all cases: both partners purified
[1] = target: T1, GST-fused Tandem-Tudor domain (TTD) of …
[2] = target: T2, GST-hUHRF1-TTD (126-280) R207Q
[3] = target: T3, GST-hUHRF1-TTD (126-280) R207H
[4] = target: T4, GST-hUHRF1-TTD (126-280) R207E
[5] = target: T5, GST-hUHRF1-TTD (126-280) M224A
[6] = target: T6, GST-hUHRF1-TTD (126-280) F278A
[7] = target: T7, GST-hUHRF1-TTD (126-280) D142A
[8] = target: T8, GST-hUHRF1-TTD (126-280) D142E
[9] = target: T9, GST-hUHRF1-TTD (126-280) D142N
[10] = target: T10, GST-hUHRF1-TTD (126-280) E153A
[11] = target: T11, GST-hUHRF1-TTD (126-280) E153D
[12] = target: T12, GST-hUHRF1-TTD (126-280) E153Q
[13] = target: T13, GST-hUHRF1-TTD (126-280) R207A
[14] = target: T14, GST-hUHRF1-TTD (126-280) R207L

Kd [1]	Kd [2]	Kd [3]	Kd [4]	Kd [5]	Kd [6]	Kd [7]	Kd [8]	Kd [9]	Kd [10]	Kd [11]	Kd [12]	Kd [13]	Kd [14]	Binder
240 nM	390 nM	460 nM	270 nM	430 nM	3900 nM	2700 nM	580 nM	2 nM	2 nM	50 nM	250 nM	370 nM	440 nM	B1
												900 nM	900 nM	B2

Reference: PMC10464304, “Refined read‐out: The hUHRF1 Tandem‐Tudor domain prefers binding to histone H3 tails containing K4me1 in the context of H3K9me2/3” (Protein Science : A Publication of the Protein Society, 2023)
